From US20250243292A1 (published 2025) come the findings set out here.

The chains are these.
B7: PP6373 (antibody, human IgG1, kappa, V domains shown)
VH: EVKFEESGGGLVQPGGSIKLSCAASGVTFSEAWMDWVRQSPEKGLEWVAEIRDKPNSYVTYYAESVKGRFTISRDDSKSRVYLQMNNLRTEDTGIYYCTGAMDYWGQGTSVTVSS
VL: DIVMTQTPLSLSVTIGQPASISCKSSQSLLYSNGKTYLNWLQQRPGQSPKRLIYQVSKLDPGIPDRFSGSGSETDFTLKISRVEAEDLGIYYCMQGSSLPWTFGGGTKLEIKR
notes: Biotinylated in tissue and cell staining; also called H4069 + L4071; P3050.ComF1.2H1

The target in one assay is T1, 3B6.
T1 construct: Monoclonal antibody; also called anti-CD24 monoclonal antibody 3B6
The experiment in a line: peptide inhibition ELISA, 3B6 on NO-CD24. On the procedure:
(§1) To determine the antigenic epitope recognized by 3B6 and affinity matured clone PP6373, we synthesized overlapping peptides covering the mature CD24 amino acid sequence (Seq ID No 42), and pre-incubated them with 3B6 antibody prior to adding 3B6 to plates pre-coated with NO-CD24 protein (CD24Fc pretreated sequentially with N-glycosidase, NanA and O-glycosidase).

For assay [1], the target named is B7. The experiment in a line: peptide inhibition ELISA, PP6373 on SA-N-CD24, peptides titrated.
In assay [2] the target is B7. Briefly: peptide inhibition ELISA, peptides titrated over a large dose range. As for the experimental part:
as §1

Assay [3] addresses B7. The experiment in a line: inhibition assay with truncated peptides.
Assay [4] has as its target T2, fully glycosylated CD24 (recombinant, from CHO cells) (N-glycans, sialic acid and O-glycans kept (untreated)).
T2 construct: Recombinant CD24 made in CHO cells, untreated; also called fully modified (N-glycan+sialic acid+O-glycan modifications) CD24; CD24 without deglycosylation
T2 chain: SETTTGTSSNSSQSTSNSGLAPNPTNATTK
Briefly: ELISA titration on coated Fc removed CD24, untreated. As for the experimental part:
FIG. 8. Quantitative comparison of binding between different CD24 glycoforms and anti-CD24 antibodies: parental PP6229 vs affinity matured PP6373. Fc removed CD24 were coated onto ELISA plate, and were then treated with either buffer (CD24), NanA (SA-) or NanA+N-glycanse (SA-N-) prior adding given doses of […] (left panel) or PP6373 (right panel). The maximum concentration tested was 7812.50 ng/ml with titration factor of 5× to a minimum concentration of 0.02 ng/ml.
Therefore, this clone is chosen for further study. The heavy chain sequence for PP6373 is listed in SEQ ID NO: 6 and the light chain sequence is listed on SEQ ID No.16. Compared with the parental sequence, the heavy chain has three mutations in CDR2, while the light chain has one mutation in CDR3 of the light chain. […] It is also of note that PP6373 gained the ability to bind to CD24 even without deglycosylation at 1/1000 level of that to SA-N-CD24. However, since CHO cells is known to have incomplete glycosylation, it is likely that the binding reflect the higher sensitivity of the antibody to detect minor glycoform in the recombinant CD24 prepared from CHO cells.

B1: SEQ ID NO 47 (peptide)
peptide: APNPTNATTK
notes: Synthetic overlapping peptide of mature CD24; by order probably peptide 5; also called one of the five overlapping CD24 peptides
Regarding B1, the binding result with 3B6 and with PP6373 [1] was “no binding” each time.

B2: SEQ ID NO 45 (peptide)
peptide: SSQSTSNSGL
notes: Synthetic overlapping peptide of mature CD24; by order probably peptide 3; also called one of the five overlapping CD24 peptides
For B2, the binding result with 3B6 and with PP6373 [1] was “no binding” in each case.

B3: SEQ ID NO 44 (peptide)
peptide: GTSSNSSQST
notes: Synthetic overlapping peptide of mature CD24; by order probably peptide 2; also called one of the five overlapping CD24 peptides
Consider B3, for which the binding result with 3B6 and with PP6373 [1] was “no binding” each time.

B4: peptide 4 (peptide)
peptide: SNSGLAPNPT
notes: Synthetic overlapping peptide of mature CD24
For the molecule B4, the binding result with PP6373 [2] is “binds”.

B5: SEQ ID NO 43 (peptide)
peptide: SETTTGTSSN
notes: Synthetic overlapping peptide of mature CD24; by order probably peptide 1; also called one of the five overlapping CD24 peptides
Take B5: the binding result in the assay with 3B6 and in the assay with PP6373 [1] was “no binding” in each case.

B6: SNSGLAPN (SEQ ID NO: 48) (peptide)
peptide: SNSGLAPN
notes: C-terminally truncated form of peptide 4; also called truncated peptide 4
As to B6, the binding result with PP6373 [3] is “binds”. B7: in assay [4], the “binding relative to that to SA-N-CD24” value was found to be 0.001 ratio.
